The values that follow come from patent publication US20260193348A1 (ANTENGENE BIOLOGICS, published 2026).

The target of experiment [1] is T1, CD3 on T cells / Jurkat cells (human, UniProt P07766 23-207; P04234 22-171; P09693 23-182).
T1 construct: whole, on cells; Native CD3 complex on CD3+ T cells isolated from normal donors or on Jurkat cells; also called human CD3; CD3+ T cells
The experiment is described as follows: FACS on Jurkat cells.

Experiment [2] deals with T2, GPRC5D on multiple myeloma cells (human, UniProt Q9NZD1 1-345).
T2 construct: whole, on cells; Endogenous GPRC5D on multiple myeloma cell lines; also called G-protein coupled receptor family C group 5 member D; MM.1S, MOLP-8, L363, RPMI8226 cells
T2 sequence (Q9NZD1 whole entry): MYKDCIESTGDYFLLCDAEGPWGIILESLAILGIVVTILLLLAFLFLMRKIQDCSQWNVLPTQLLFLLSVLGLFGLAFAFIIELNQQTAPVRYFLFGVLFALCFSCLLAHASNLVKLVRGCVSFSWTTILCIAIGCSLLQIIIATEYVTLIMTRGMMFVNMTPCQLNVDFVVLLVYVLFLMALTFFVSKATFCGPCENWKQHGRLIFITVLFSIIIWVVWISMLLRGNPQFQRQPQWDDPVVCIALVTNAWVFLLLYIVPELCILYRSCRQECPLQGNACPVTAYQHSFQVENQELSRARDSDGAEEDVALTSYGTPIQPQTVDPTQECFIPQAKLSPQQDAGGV
The experiment is described as follows: FACS on MM.1S cells.

T1 sequence (P07766 23-207, chain 1 of 3): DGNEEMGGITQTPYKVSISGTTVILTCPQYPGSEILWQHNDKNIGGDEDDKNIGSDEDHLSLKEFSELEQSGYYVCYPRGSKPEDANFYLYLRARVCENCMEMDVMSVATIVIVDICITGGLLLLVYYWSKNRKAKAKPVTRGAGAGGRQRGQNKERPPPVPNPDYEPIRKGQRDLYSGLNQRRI
T1 sequence (P04234 22-171, chain 2 of 3): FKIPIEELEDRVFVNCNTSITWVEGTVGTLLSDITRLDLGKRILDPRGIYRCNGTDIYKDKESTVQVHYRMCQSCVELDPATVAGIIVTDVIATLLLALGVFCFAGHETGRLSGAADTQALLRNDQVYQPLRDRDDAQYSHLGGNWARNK
T1 sequence (P09693 23-182, chain 3 of 3): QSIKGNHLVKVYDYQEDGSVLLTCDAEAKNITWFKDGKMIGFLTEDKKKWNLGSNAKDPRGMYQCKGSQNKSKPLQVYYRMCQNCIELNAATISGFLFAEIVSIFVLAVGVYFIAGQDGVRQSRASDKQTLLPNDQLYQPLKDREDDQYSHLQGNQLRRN

B1: Bis-108+147-S32T.L (bispecific antibody, V domains shown)
VH 1: EVQLVQSGAEVKKPGASVKVSCKASGYTFTSYVIHWVRQAPGQGLEWMGYFNPYNDGTKYNEEFKGRVTLTSDKSTSTAYMELRSLRSDDTAVYYCARGGVRRYFDVWGQGTTVTVSS
VL 1: DIQMTQSPSSLSASVGDRVTITCRASQDIGSNLNWLQQKPGKAIKRLIYATFGLDSGVPSRFSGSRSGTDFTLTISSLQPEDFATYYCQQYASFPYTFGGGTKVEIK
VH 2: EVQLVQSGAEVKKPGSSVKVSCKASGYTFTSYWMHWVRQAPGQCLEWMGNINPSSGATNYNEKFKSRVTLTVDKSTSTAYMELSSLRSEDTAVYYCARDRSSQYYFDYWGQGTTVTVSS
VL 2: DIVMTQSPDSLAVSLGERATINCKSSQSLLNTRSRKNYLAWYQQKPGQPPKLLIYWASTRESGVPDRFSGSGSGTDFTLTISSLQAEDVAVYYCTQSYTLRTFGCGTKVEIK
notes: Fab-scFv-Fab (2+1): first VH/VL = anti-GPRC5D Fabs, second VH/VL = anti-CD3 scFv
For the molecule B1, the binding result in experiment [1] and in experiment [2] was “binds” each time.

B2: Bis-108+147-R35S.L (bispecific antibody, V domains shown)
VH 1: EVQLVQSGAEVKKPGASVKVSCKASGYTFTSYVIHWVRQAPGQGLEWMGYFNPYNDGTKYNEEFKGRVTLTSDKSTSTAYMELRSLRSDDTAVYYCARGGVRRYFDVWGQGTTVTVSS
VL 1: DIQMTQSPSSLSASVGDRVTITCRASQDIGSNLNWLQQKPGKAIKRLIYATFGLDSGVPSRFSGSRSGTDFTLTISSLQPEDFATYYCQQYASFPYTFGGGTKVEIK
VH 2: EVQLVQSGAEVKKPGSSVKVSCKASGYTFTSYWMHWVRQAPGQCLEWMGNINPSSGATNYNEKFKSRVTLTVDKSTSTAYMELSSLRSEDTAVYYCARDRSSQYYFDYWGQGTTVTVSS
VL 2: DIVMTQSPDSLAVSLGERATINCKSSQSLLNSRSSKNYLAWYQQKPGQPPKLLIYWASTRESGVPDRFSGSGSGTDFTLTISSLQAEDVAVYYCTQSYTLRTFGCGTKVEIK
notes: as for B1
In the case of B2, the binding result in experiment [1] and in experiment [2] was “binds” throughout.

B3: Bis-108+147-R100Q.H (bispecific antibody, V domains shown)
VH 1: EVQLVQSGAEVKKPGASVKVSCKASGYTFTSYVIHWVRQAPGQGLEWMGYFNPYNDGTKYNEEFKGRVTLTSDKSTSTAYMELRSLRSDDTAVYYCARGGVRRYFDVWGQGTTVTVSS
VL 1: DIQMTQSPSSLSASVGDRVTITCRASQDIGSNLNWLQQKPGKAIKRLIYATFGLDSGVPSRFSGSRSGTDFTLTISSLQPEDFATYYCQQYASFPYTFGGGTKVEIK
VH 2: EVQLVQSGAEVKKPGSSVKVSCKASGYTFTSYWMHWVRQAPGQCLEWMGNINPSSGATNYNEKFKSRVTLTVDKSTSTAYMELSSLRSEDTAVYYCARDQSSQYYFDYWGQGTTVTVSS
VL 2: DIVMTQSPDSLAVSLGERATINCKSSQSLLNSRSRKNYLAWYQQKPGQPPKLLIYWASTRESGVPDRFSGSGSGTDFTLTISSLQAEDVAVYYCTQSYTLRTFGCGTKVEIK
notes: as for B1
Take B3: the binding result in experiment [1] and in experiment [2] was “binds” each time.

B4: Bis-108+147-N31Y.L (bispecific antibody, V domains shown)
VH 1: EVQLVQSGAEVKKPGASVKVSCKASGYTFTSYVIHWVRQAPGQGLEWMGYFNPYNDGTKYNEEFKGRVTLTSDKSTSTAYMELRSLRSDDTAVYYCARGGVRRYFDVWGQGTTVTVSS
VL 1: DIQMTQSPSSLSASVGDRVTITCRASQDIGSNLNWLQQKPGKAIKRLIYATFGLDSGVPSRFSGSRSGTDFTLTISSLQPEDFATYYCQQYASFPYTFGGGTKVEIK
VH 2: EVQLVQSGAEVKKPGSSVKVSCKASGYTFTSYWMHWVRQAPGQCLEWMGNINPSSGATNYNEKFKSRVTLTVDKSTSTAYMELSSLRSEDTAVYYCARDRSSQYYFDYWGQGTTVTVSS
VL 2: DIVMTQSPDSLAVSLGERATINCKSSQSLLYSRSRKNYLAWYQQKPGQPPKLLIYWASTRESGVPDRFSGSGSGTDFTLTISSLQAEDVAVYYCTQSYTLRTFGCGTKVEIK
notes: as for B1
For the molecule B4, the binding result in experiment [1] and in experiment [2] was “binds” throughout.

B5: Bis-108+147-S54R.H (bispecific antibody, V domains shown)
VH 1: EVQLVQSGAEVKKPGASVKVSCKASGYTFTSYVIHWVRQAPGQGLEWMGYFNPYNDGTKYNEEFKGRVTLTSDKSTSTAYMELRSLRSDDTAVYYCARGGVRRYFDVWGQGTTVTVSS
VL 1: DIQMTQSPSSLSASVGDRVTITCRASQDIGSNLNWLQQKPGKAIKRLIYATFGLDSGVPSRFSGSRSGTDFTLTISSLQPEDFATYYCQQYASFPYTFGGGTKVEIK
VH 2: EVQLVQSGAEVKKPGSSVKVSCKASGYTFTSYWMHWVRQAPGQCLEWMGNINPRSGATNYNEKFKSRVTLTVDKSTSTAYMELSSLRSEDTAVYYCARDRSSQYYFDYWGQGTTVTVSS
VL 2: DIVMTQSPDSLAVSLGERATINCKSSQSLLNSRSRKNYLAWYQQKPGQPPKLLIYWASTRESGVPDRFSGSGSGTDFTLTISSLQAEDVAVYYCTQSYTLRTFGCGTKVEIK
notes: as for B1
For B5, the binding result in experiment [1] and in experiment [2] was “binds” throughout.

B6: Bis-108+147-S32R.L (bispecific antibody, V domains shown)
VH 1: EVQLVQSGAEVKKPGASVKVSCKASGYTFTSYVIHWVRQAPGQGLEWMGYFNPYNDGTKYNEEFKGRVTLTSDKSTSTAYMELRSLRSDDTAVYYCARGGVRRYFDVWGQGTTVTVSS
VL 1: DIQMTQSPSSLSASVGDRVTITCRASQDIGSNLNWLQQKPGKAIKRLIYATFGLDSGVPSRFSGSRSGTDFTLTISSLQPEDFATYYCQQYASFPYTFGGGTKVEIK
VH 2: EVQLVQSGAEVKKPGSSVKVSCKASGYTFTSYWMHWVRQAPGQCLEWMGNINPSSGATNYNEKFKSRVTLTVDKSTSTAYMELSSLRSEDTAVYYCARDRSSQYYFDYWGQGTTVTVSS
VL 2: DIVMTQSPDSLAVSLGERATINCKSSQSLLNRRSRKNYLAWYQQKPGQPPKLLIYWASTRESGVPDRFSGSGSGTDFTLTISSLQAEDVAVYYCTQSYTLRTFGCGTKVEIK
notes: as for B1
Turning to B6, the binding result in experiment [1] and in experiment [2] was “binds” in each case.

B7: Bis-108+147-R33A.L (bispecific antibody, V domains shown)
VH 1: EVQLVQSGAEVKKPGASVKVSCKASGYTFTSYVIHWVRQAPGQGLEWMGYFNPYNDGTKYNEEFKGRVTLTSDKSTSTAYMELRSLRSDDTAVYYCARGGVRRYFDVWGQGTTVTVSS
VL 1: DIQMTQSPSSLSASVGDRVTITCRASQDIGSNLNWLQQKPGKAIKRLIYATFGLDSGVPSRFSGSRSGTDFTLTISSLQPEDFATYYCQQYASFPYTFGGGTKVEIK
VH 2: EVQLVQSGAEVKKPGSSVKVSCKASGYTFTSYWMHWVRQAPGQCLEWMGNINPSSGATNYNEKFKSRVTLTVDKSTSTAYMELSSLRSEDTAVYYCARDRSSQYYFDYWGQGTTVTVSS
VL 2: DIVMTQSPDSLAVSLGERATINCKSSQSLLNSASRKNYLAWYQQKPGQPPKLLIYWASTRESGVPDRFSGSGSGTDFTLTISSLQAEDVAVYYCTQSYTLRTFGCGTKVEIK
notes: as for B1
As to B7, the binding result in experiment [1] and in experiment [2] was “binds” each time.

B8: Bis-108+147-S31R.H (bispecific antibody, V domains shown)
VH 1: EVQLVQSGAEVKKPGASVKVSCKASGYTFTSYVIHWVRQAPGQGLEWMGYFNPYNDGTKYNEEFKGRVTLTSDKSTSTAYMELRSLRSDDTAVYYCARGGVRRYFDVWGQGTTVTVSS
VL 1: DIQMTQSPSSLSASVGDRVTITCRASQDIGSNLNWLQQKPGKAIKRLIYATFGLDSGVPSRFSGSRSGTDFTLTISSLQPEDFATYYCQQYASFPYTFGGGTKVEIK
VH 2: EVQLVQSGAEVKKPGSSVKVSCKASGYTFTRYWMHWVRQAPGQCLEWMGNINPSSGATNYNEKFKSRVTLTVDKSTSTAYMELSSLRSEDTAVYYCARDRSSQYYFDYWGQGTTVTVSS
VL 2: DIVMTQSPDSLAVSLGERATINCKSSQSLLNSRSRKNYLAWYQQKPGQPPKLLIYWASTRESGVPDRFSGSGSGTDFTLTISSLQAEDVAVYYCTQSYTLRTFGCGTKVEIK
notes: as for B1
In the case of B8, the binding result in experiment [1] and in experiment [2] was “binds” throughout.

B9: Bis-108+147-N37K.L (bispecific antibody, V domains shown)
VH 1: EVQLVQSGAEVKKPGASVKVSCKASGYTFTSYVIHWVRQAPGQGLEWMGYFNPYNDGTKYNEEFKGRVTLTSDKSTSTAYMELRSLRSDDTAVYYCARGGVRRYFDVWGQGTTVTVSS
VL 1: DIQMTQSPSSLSASVGDRVTITCRASQDIGSNLNWLQQKPGKAIKRLIYATFGLDSGVPSRFSGSRSGTDFTLTISSLQPEDFATYYCQQYASFPYTFGGGTKVEIK
VH 2: EVQLVQSGAEVKKPGSSVKVSCKASGYTFTSYWMHWVRQAPGQCLEWMGNINPSSGATNYNEKFKSRVTLTVDKSTSTAYMELSSLRSEDTAVYYCARDRSSQYYFDYWGQGTTVTVSS
VL 2: DIVMTQSPDSLAVSLGERATINCKSSQSLLNSRSRKKYLAWYQQKPGQPPKLLIYWASTRESGVPDRFSGSGSGTDFTLTISSLQAEDVAVYYCTQSYTLRTFGCGTKVEIK
notes: as for B1
In the case of B9, the binding result in experiment [1] and in experiment [2] was “binds” in each case.

B10: Bis-108+147-K36R.L (bispecific antibody, V domains shown)
VH 1: EVQLVQSGAEVKKPGASVKVSCKASGYTFTSYVIHWVRQAPGQGLEWMGYFNPYNDGTKYNEEFKGRVTLTSDKSTSTAYMELRSLRSDDTAVYYCARGGVRRYFDVWGQGTTVTVSS
VL 1: DIQMTQSPSSLSASVGDRVTITCRASQDIGSNLNWLQQKPGKAIKRLIYATFGLDSGVPSRFSGSRSGTDFTLTISSLQPEDFATYYCQQYASFPYTFGGGTKVEIK
VH 2: EVQLVQSGAEVKKPGSSVKVSCKASGYTFTSYWMHWVRQAPGQCLEWMGNINPSSGATNYNEKFKSRVTLTVDKSTSTAYMELSSLRSEDTAVYYCARDRSSQYYFDYWGQGTTVTVSS
VL 2: DIVMTQSPDSLAVSLGERATINCKSSQSLLNSRSRRNYLAWYQQKPGQPPKLLIYWASTRESGVPDRFSGSGSGTDFTLTISSLQAEDVAVYYCTQSYTLRTFGCGTKVEIK
notes: as for B1
As to B10, the binding result in experiment [1] and in experiment [2] was “binds” each time.

B11: Bis-108+147-R35K.L (bispecific antibody, V domains shown)
VH 1: EVQLVQSGAEVKKPGASVKVSCKASGYTFTSYVIHWVRQAPGQGLEWMGYFNPYNDGTKYNEEFKGRVTLTSDKSTSTAYMELRSLRSDDTAVYYCARGGVRRYFDVWGQGTTVTVSS
VL 1: DIQMTQSPSSLSASVGDRVTITCRASQDIGSNLNWLQQKPGKAIKRLIYATFGLDSGVPSRFSGSRSGTDFTLTISSLQPEDFATYYCQQYASFPYTFGGGTKVEIK
VH 2: EVQLVQSGAEVKKPGSSVKVSCKASGYTFTSYWMHWVRQAPGQCLEWMGNINPSSGATNYNEKFKSRVTLTVDKSTSTAYMELSSLRSEDTAVYYCARDRSSQYYFDYWGQGTTVTVSS
VL 2: DIVMTQSPDSLAVSLGERATINCKSSQSLLNSRSKKNYLAWYQQKPGQPPKLLIYWASTRESGVPDRFSGSGSGTDFTLTISSLQAEDVAVYYCTQSYTLRTFGCGTKVEIK
notes: as for B1
Take B11: the binding result in experiment [1] and in experiment [2] was “binds” each time.
